Measured values: patent US20210214436A1 (DRAGONFLY THERAPEUTICS, published 2021)

Molecular target: T1, BCMA expressed on myeloma cells (MM.1R, KMS12-PE) (human, UniProt Q02223 1-184)
T1 construct: Human multiple myeloma cell lines expressing BCMA; also called surface BCMA; MM.1R myeloma cells
T1 sequence: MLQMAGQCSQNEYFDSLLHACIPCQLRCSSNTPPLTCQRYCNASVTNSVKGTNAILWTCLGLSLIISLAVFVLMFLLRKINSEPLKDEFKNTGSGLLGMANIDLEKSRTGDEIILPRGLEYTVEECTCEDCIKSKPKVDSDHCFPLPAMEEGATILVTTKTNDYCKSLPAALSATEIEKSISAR
Experiment: flow cytometry on MM.1R cells
Experimental: F4-TriNKETs were diluted, and were incubated with MM.1R cells. […] Cells were analyzed by flow cytometry, binding MFI to cell expressed BCMA was normalized to secondary antibody controls to obtain fold over background values.

Binder | binding result
A49-F4-TriNKET-BCMA (bispecific antibody, V domains shown, Only variable domains can be tied to the molecule) VH 1: EVQLLESGGGLVQPGGSLRLSCAASGFTFSDNAMGWVRQAPGKGLEWVSAISGPGSSTYYADSVKGRFTISRDNSKNTLYLQMNSLRAEDTAVYYCAKVLGWFDYWGQGTLVTVSS VL 1: EIVLTQSPGTLSLSPGERATLSCRASQSVSDEYLSWYQQKPGQAPRLLIHSASTRATGIPDRFSGSGSGTDFTLAISRLEPEDFAVYYCQQYGYPPDFTFGQGTKVEIK VH 2: EVQLVESGGGLVKPGGSLRLSCAASGFTFSSYSMNWVRQAPGKGLEWVSSISSSSSYIYYADSVKGRFTISRDNAKNSLYLQMNSLRAEDTAVYYCARGAPMGAAAGWFDPWGQGTLVTVSS VL 2: DIQMTQSPSSVSASVGDRVTITCRASQGISSWLAWYQQKPGKAPKLLIYAASSLQSGVPSRFSGSGSGTDFTLTISSLQPEDFATYYCQQGVSFPRTFGGGTKVEIK | binds
BCMA monoclonal antibody (EM-901) (antibody, V domains shown) VH: EVQLLESGGGLVQPGGSLRLSCAASGFTFSDNAMGWVRQAPGKGLEWVSAISGPGSSTYYADSVKGRFTISRDNSKNTLYLQMNSLRAEDTAVYYCAKVLGWFDYWGQGTLVTVSS VL: EIVLTQSPGTLSLSPGERATLSCRASQSVSDEYLSWYQQKPGQAPRLLIHSASTRATGIPDRFSGSGSGTDFTLAISRLEPEDFAVYYCQQYGYPPDFTFGQGTKVEIK | binds
